Holding throughout (test): EMSA
What all share (details): 150 mM KCl, 10 mM Tris-HCl pH 8.0; EMSA 10 nM DNA, 30 min, gel at room temperature; BLI 800 nM protein, 30 C

For data set [1], the target named is T1, RefZ R102S-His6 R102S (Bacillus subtilis 168) (UniProt O34970).
T1 sequence: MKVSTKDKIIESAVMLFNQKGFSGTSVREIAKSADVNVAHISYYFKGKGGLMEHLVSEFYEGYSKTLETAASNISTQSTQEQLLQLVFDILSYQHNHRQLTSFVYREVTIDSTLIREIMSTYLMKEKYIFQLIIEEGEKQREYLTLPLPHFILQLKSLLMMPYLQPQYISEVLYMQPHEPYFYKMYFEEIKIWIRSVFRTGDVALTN

Data set [2] addresses T2, RefZ L153R-His6 L153R (Bacillus subtilis 168) (UniProt O34970).
T2 sequence: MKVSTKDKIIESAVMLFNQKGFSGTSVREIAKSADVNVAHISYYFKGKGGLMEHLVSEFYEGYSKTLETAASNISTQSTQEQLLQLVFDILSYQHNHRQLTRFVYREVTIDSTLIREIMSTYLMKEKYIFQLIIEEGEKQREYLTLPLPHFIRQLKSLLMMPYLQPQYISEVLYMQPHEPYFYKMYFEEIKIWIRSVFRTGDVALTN

Data set [3] has as its target T3, RefZ E179K-His6 E179K (Bacillus subtilis 168) (UniProt O34970).
T3 sequence: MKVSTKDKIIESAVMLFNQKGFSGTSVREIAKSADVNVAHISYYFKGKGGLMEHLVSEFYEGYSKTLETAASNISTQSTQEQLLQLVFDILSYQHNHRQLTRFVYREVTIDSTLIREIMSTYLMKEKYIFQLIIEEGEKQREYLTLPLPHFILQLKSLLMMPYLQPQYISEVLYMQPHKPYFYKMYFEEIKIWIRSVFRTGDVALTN

In data set [4] the target is T4, RefZ E61K-His6 E61K (Bacillus subtilis 168) (UniProt O34970).
T4 sequence: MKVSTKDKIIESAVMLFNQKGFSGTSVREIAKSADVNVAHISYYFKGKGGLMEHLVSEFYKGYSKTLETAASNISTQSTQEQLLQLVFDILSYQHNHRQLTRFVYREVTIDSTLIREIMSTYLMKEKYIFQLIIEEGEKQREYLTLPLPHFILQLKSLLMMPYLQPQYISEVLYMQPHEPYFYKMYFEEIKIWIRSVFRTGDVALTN

Data set [5] concerns the target T5, RefZ R102C-His6 R102C (Bacillus subtilis 168) (UniProt O34970).
T5 sequence: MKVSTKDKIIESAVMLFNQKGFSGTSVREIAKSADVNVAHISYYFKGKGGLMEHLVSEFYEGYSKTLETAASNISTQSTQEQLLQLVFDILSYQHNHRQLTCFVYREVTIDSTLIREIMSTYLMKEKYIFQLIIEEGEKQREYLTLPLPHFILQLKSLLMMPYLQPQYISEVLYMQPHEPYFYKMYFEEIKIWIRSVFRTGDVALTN

Data set [6] concerns the target T6, RefZ E117D-His6 E117D (Bacillus subtilis 168) (UniProt O34970).
T6 sequence: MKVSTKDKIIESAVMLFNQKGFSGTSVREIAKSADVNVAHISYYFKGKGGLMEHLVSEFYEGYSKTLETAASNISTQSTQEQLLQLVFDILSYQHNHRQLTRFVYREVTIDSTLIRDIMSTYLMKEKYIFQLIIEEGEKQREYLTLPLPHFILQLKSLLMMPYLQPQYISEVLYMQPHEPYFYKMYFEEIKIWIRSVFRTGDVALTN

For data set [7], the target named is T7, RefZ E117G-His6 E117G (Bacillus subtilis 168) (UniProt O34970).
T7 sequence: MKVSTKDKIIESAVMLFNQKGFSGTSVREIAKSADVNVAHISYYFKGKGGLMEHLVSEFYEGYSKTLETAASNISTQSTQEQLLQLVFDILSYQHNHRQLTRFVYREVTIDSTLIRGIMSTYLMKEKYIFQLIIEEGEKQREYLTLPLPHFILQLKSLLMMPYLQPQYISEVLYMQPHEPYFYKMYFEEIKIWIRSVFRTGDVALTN

Data set [8] concerns the target T8, RefZ R116S-His6 R116S (Bacillus subtilis 168) (UniProt O34970).
T8 sequence: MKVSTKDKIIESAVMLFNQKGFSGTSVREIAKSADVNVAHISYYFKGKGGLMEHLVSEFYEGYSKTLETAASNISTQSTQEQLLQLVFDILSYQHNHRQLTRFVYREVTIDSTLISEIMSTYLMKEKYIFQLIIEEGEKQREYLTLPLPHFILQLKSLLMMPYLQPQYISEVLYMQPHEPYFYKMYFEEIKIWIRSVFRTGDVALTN

Data set [9] addresses T9, RefZ-His6 (WT) (Bacillus subtilis PY79) (UniProt O34970).
T9 sequence: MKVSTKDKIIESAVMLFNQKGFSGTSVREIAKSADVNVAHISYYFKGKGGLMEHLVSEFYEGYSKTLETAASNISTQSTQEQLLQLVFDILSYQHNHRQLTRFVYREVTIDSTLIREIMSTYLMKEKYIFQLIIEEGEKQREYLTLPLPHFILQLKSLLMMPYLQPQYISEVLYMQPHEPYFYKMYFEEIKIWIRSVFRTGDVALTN

Data set [10] addresses T10, RefZ R116W-His6 R116W (Bacillus subtilis 168) (UniProt O34970).
T10 sequence: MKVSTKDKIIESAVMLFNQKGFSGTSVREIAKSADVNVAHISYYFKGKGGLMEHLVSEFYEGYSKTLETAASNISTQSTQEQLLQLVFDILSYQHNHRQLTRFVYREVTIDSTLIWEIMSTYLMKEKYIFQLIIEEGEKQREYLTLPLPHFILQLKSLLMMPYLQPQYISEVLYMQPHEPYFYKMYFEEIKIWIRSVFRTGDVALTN

Data set [11] addresses T11, RefZ E53K-His6 E53K (Bacillus subtilis 168) (UniProt O34970).
T11 sequence: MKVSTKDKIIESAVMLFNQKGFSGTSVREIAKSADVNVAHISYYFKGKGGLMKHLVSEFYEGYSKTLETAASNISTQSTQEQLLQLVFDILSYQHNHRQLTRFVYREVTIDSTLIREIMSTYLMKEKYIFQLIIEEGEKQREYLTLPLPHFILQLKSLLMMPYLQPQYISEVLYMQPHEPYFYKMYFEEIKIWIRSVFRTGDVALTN

As to “ATCAGCGCTCTGGTGATTGCAAGCTGCTGCTGTTGACCGCCTTTTCGTTTTGAACAAACGTTTGATTAAAACAAATAGCCCCCTCTGTTTAGCCGGAGTCGGCCTAATACAGCGACAATCTGCCCCGGGCGAAGCTAAGGCTGTGCAAAA (double strand) [RBML1 150-bp probe]”, the binding entry in data set [1] was “binds”; in data set [2], “binds more weakly”; in [3] it was “binds”; in data set [4], “binds”; in [5], “binds”; in data set [6], “binds”. The binding entry in [7], in [8], in [9], in data set [10] and in [11] was “binds” throughout.

Values taken from article PMC6657595, “A DNA-Binding Protein Tunes Septum Placement during Bacillus subtilis Sporulation”.
